In patent CN114671948A:

B1: BoNT/AHc单克隆抗体细胞株401 (monoclonal antibody of hybridoma cell line 401) (antibody)
VH: LTMDFGLSLVFLVLTLKGVKCEVQLVESGGGLVKPGGSLKLSCAASGFAFSTSDMSWVRQTPEKRLEWVTYITSGAGNTNYPDTVKGRFTISRDNAKNTLYVQMSSLKSEDTAMYYCARQSRWSLALDYWGQGTLVTVSAAKTTPPSVYPLAPVCGG
VL: LTMETDTLLLWVLLLWVPGSTGDIVLTQSPASLAVSLGQRATISYRGSNSVSISAYSYMHWNQQKPGQPPRLLIYLVWNQESGVPARFSGSGSGTDFTLNIHPVEEEDAATYYCQHITELTRSEGGPSWKSNGLMLHQLYPSPTIQ
B2: BoNT/AHc单克隆抗体细胞株1103 (monoclonal antibody of hybridoma cell line 1103) (antibody)
VH: LTMNFGLSWVFLLTLLHGFQCEVKLVKSGGGSVQPGGSLRLSCTTSGFTFSDSYMQWVRQPLGKRLEWITAGRHKANEYTTEWSASTRGRFIVSRDTSQSILNLQMNALRTEDPAISYCARDDCPHFILPRSYYFFDIWGAGTTVTVSSAKTTPPSVYPLAPVCGG
VL: DIVLTQSPASLAVSLGQRATISYRPSKSVSTSRYSYMHWNQQKPGQPPRLLIYLESNLASGVPARFSGSGSGTDFTLNIHPVEEEDAATYYCQLITELTRSEGGPSWKYNGLMLHQLYP

Target: A型肉毒毒素 (botulinum toxin type A, sample solution of Example 4) (Clostridium botulinum) (UniProt P0DPI0)
Chain of UniProt P0DPI0 (P0DPI0 868-1296 limits assumed): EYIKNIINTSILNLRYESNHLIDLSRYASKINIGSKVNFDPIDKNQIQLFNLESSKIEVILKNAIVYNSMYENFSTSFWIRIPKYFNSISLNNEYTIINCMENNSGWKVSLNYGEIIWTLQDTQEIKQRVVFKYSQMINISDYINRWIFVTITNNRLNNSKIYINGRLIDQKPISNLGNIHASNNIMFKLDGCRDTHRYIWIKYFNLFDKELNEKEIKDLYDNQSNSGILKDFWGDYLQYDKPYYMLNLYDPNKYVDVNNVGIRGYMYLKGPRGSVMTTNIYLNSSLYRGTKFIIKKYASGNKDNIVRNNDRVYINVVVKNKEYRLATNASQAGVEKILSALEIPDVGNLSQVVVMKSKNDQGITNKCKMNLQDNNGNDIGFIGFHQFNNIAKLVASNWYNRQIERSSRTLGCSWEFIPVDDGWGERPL

Binder	检测限 (detection limit of the sandwich test)
B1	20 ng/mL
B2	20 ng/mL
